# Source: US5495006A, “Antiviral polynucleotide conjugates” (Allelix Biopharmaceuticals, Inc., priority 1993, dated 1996)
# T1: HIV-1 Tat-derived peptide RKKRRQRRRPPQGS (Human immunodeficiency virus 1)
# T1 chain: RKKRRQRRRPPQGS
# B1: TAR conjugate 5A (ssRNA)
# RNA: GGAGAUCUGAGCGCUCUCUCC
# modifications: linker A -O-(CH2)9-O- replaces 6-nt loop between the two strands
# B2: TAR conjugate 5CC (ssRNA)
# RNA: GGAGAUCUGAGCGCUCUCUCC
# modifications: two coupled linkers C replace 6-nt loop between the two strands
# B3: TAR conjugate 5BB (ssRNA)
# RNA: GGAGAUCUGAGCGCUCUCUCC
# modifications: two coupled linkers B replace 6-nt loop between the two strands
# B4: cyclic TAR 31-mer (oligomer 13) (ssRNA)
# RNA: UCUCCUUCGGGAGAUCUGAGCCUGGGAGCUC
# modifications: cyclic (T4 RNA ligase closed)
# B5: TAR conjugate structure 8 (ssRNA)
# RNA: GGAGAUGAGCGCUCUCUCC
# modifications: bulge UCU replaced by U-Lc-Lc (two C3 linkers between nt 6 and nt 9); loop closure shown only in structure drawing
# B6: TAR 27-mer (oligomer 4) (ssRNA)
# RNA: GGAGAUCUGAGCCUGGGAGCUCUCUCC
# B7: cyclic TAR conjugate oligomer 15 (ssRNA)
# RNA: GGAGAUCUGAGCGCUCUCUCC
# modifications: cyclic 21-mer, linker D at top and bottom of duplex
# B8: TAR conjugate oligomer 9 (ssRNA)
# RNA: GCUCUCUCCGGAGAUCUGAGC
# modifications: chemical linker at bottom of duplex between the two strands
# Key:
# [1] = tested on: HSV-1; assay: Plaque reduction assay, HSV-1 in Vero cells; type: cell-based, herpes simplex virus type I; conditions: for % Inhibition (plaque reduction, HSV-1 replication): Vero cells, estimation
# Procedure: Specifically, monolayers of cells were pretreated by incubation with one of conjugates (III) and (IV), infected with various concentrations of HSV-1 (measured by plaque forming units, PFU) and the infected cells were then incubated in the presence of conjugate. Following incubation with the conjugate, the cells were stained using the conventional crystal violet staining method. Those portions of the cell monolayer appearing as clear, unstained areas were identified as dead, virally-infected cells (i.e. plaques), while those areas stained purple indicated viable cells. Thus, inhibition of the virus was determined by counting, using a dissecting microscope, the number of plaques. The number of plaques on a plate incubated in the presence of conjugate was compared to the number of plaques on a control plate incubated in the absence of conjugate and the extent of viral inhibition was thus determined.
# Vero cells (African green monkey kidney cells, ATCC CCL 81) were seeded into a 96-well plate at a concentration of 2×10^4 cells per well in 50 μl of Dulbecco's modified eagle medium (DMEM, Gibco). The media was supplemented with 10% Nu-serum (Biomedical Products), penicillin (100 IU/ml), streptomycin ([…]) and gentamicin (0.02 mg/ml) obtained from Gibco. The cells were pretreated with polynucleotide conjugate (III) at concentrations of 1 μM and 10 μM by incubation for 24 hours at 37° C. and 5% CO2. Following the incubation, the culture medium was removed from the cells. […]
# The media was removed from the cells and the cells were subsequently stained with crystal violet in 70% ethanol:formalin:acetic acid (20:2:1) solution and heat fixed. The average number of plaques per well of each test sample were counted using a dissecting microscope (10-40× magnification). Inhibition was determined as the difference between the number of plaques in the control sample (0 μM conjugate) and the number of plaques in the test sample. […]
# [2] = tested on: HIV-1 Tat-derived peptide RKKRRQRRRPPQGS (Human immunodeficiency virus 1); assay: EMSA
# [3] = target: T1, HIV-1 Tat-derived peptide RKKRRQRRRPPQGS; assay: EMSA; 40.1% active RNA; conditions: protein: synthetic; tags: synthetic peptide, American Peptide Co; HIV LAI isolate; label: 5'-32P; linker-bridged hairpin with UCU bulge
# [4] = target: T1, HIV-1 Tat-derived peptide RKKRRQRRRPPQGS; assay: EMSA; 17.8% active RNA; conditions: protein: synthetic; tags: synthetic peptide, American Peptide Co; HIV LAI isolate; label: 5'-32P; linker-bridged hairpin with UCU bulge
# [5] = target: T1, HIV-1 Tat-derived peptide RKKRRQRRRPPQGS; assay: EMSA; 38.3% active RNA; conditions: protein: synthetic; tags: synthetic peptide, American Peptide Co; HIV LAI isolate; label: 5'-32P; linker-bridged hairpin with UCU bulge
# [6] = target: T1, HIV-1 Tat-derived peptide RKKRRQRRRPPQGS; assay: EMSA; binds efficiently; conditions: protein: synthetic; tags: synthetic peptide, American Peptide Co; HIV LAI isolate; label: 32P; cyclic dumbbell with UCU bulge
# [7] = target: T2, HIV-1 Tat full-length (86 aa) (Human immunodeficiency virus 1, UniProt P04608 P04608:1-86); assay: EMSA; binds efficiently; conditions: tags: American Bio-Technologies, Inc; label: 32P; cyclic dumbbell with UCU bulge
# [8] = target: T1, HIV-1 Tat-derived peptide RKKRRQRRRPPQGS; assay: EMSA; Tm 60 C; conditions: protein: synthetic; tags: synthetic peptide, American Peptide Co; HIV LAI isolate; label: 5'-32P; linker-bridged hairpin
# [9] = target: T2, HIV-1 Tat full-length (86 aa); assay: EMSA; pre-formed complex used for competition; conditions: tags: American Bio-Technologies, Inc; label: 5'-32P; hairpin with UCU bulge and 6-nt loop
# [10] = target: T1, HIV-1 Tat-derived peptide RKKRRQRRRPPQGS; assay: EMSA; 10 mM Tris pH 7.5, 50 mM NaCl, 1 mM DTT, 1 mM EDTA, 23 C; 45.9% active RNA; conditions: protein: synthetic; tags: synthetic peptide, American Peptide Co; HIV LAI isolate; label: 5'-32P; hairpin with UCU bulge and 6-nt loop
# [11] = target: T1, HIV-1 Tat-derived peptide RKKRRQRRRPPQGS; assay: EMSA; Tm 61 C; SEQ 2 in the listing appears to be printed 3'-5'; conditions: protein: synthetic; tags: synthetic peptide, American Peptide Co; HIV LAI isolate; label: 5'-32P; bottom-linked duplex with UCU bulge
molecule,measurement,setting,value
"conjugate (III): 22-deoxyribonucleotide fully hybridized ICP4 DNA-binding site (SEQ ID NOS 6 and 7), strands joined by linker LA HO--(CH2)9--OH (chain 1 CGCTATCGTCCATACCGACCAC; chain 2 GTGGTCGGTATGGACGATAGCG; DNA, backbone not given here; strands joined by nonanediol linker)","% Inhibition (plaque reduction, HSV-1 replication)",[1]; 1 μM conjugate,25%
same,"% Inhibition (plaque reduction, HSV-1 replication)",[1]; 10 μM conjugate,50%
same,Inhibition of HSV-1 (in words),[1]; plaque reduction assay,inhibit HSV-1
GGAGAUCUGAGCGCUCUCUCC [TAR conjugate 5B],Kd,"[2]; linker B (triethylene glycol) replaces 6-nt loop between the two strands, 42.6% active RNA",0.95 nM
GGAGAUCUGAGCGCUCUCUCC [TAR conjugate 5D],Kd,"[2]; linker D (hexaethylene glycol) replaces 6-nt loop between the two strands, 56.0% active RNA",0.66 nM
B1,Kd,[3],0.71 nM
B2,Kd,[4],0.43 nM
B3,Kd,[5],1.13 nM
B4,binding result,[6],binds
same,binding result,[7],binds
B5,Kd,[8],0.51 nM
B6,binding result,[9],binds
same,Kd,[10],0.41 nM
B7,binding result,[7],binds
B8,Kd,[11],2.2 nM
